Data as given in the DeepSol protein solubility set.

Experiment: soluble on expression in E. coli; label from the status in PepcDB or PDB records

Row | Sequence | soluble on expression in E. coli
1 | FSDFIANHIFMESRCEGIIRITAISLPFMCIHNCLSNYYYSQKESFLPASSQLVEQLVRIGTIILYVRIKNVSTISIADAVTGNIFGEFAAATYCAIPLFFRSIHNKSMMQKLSCSLREYRYIVKYAFPINANQTVLHLLEGAEAILIPAILCMHGLTKDNAISQFGILTGM | not soluble
2 | FSNKRVLVEKEGEAGIAVMKFKNPPVNSLSLEFLTEFVISLEKLENDKSIRGVILTSERPGIFSAGLDLMEMYGRNPAHYAEYWKAVQELWLRLYLSNLTLISAINGASPAGGCLMALTCDYRIMADNSKYTIGLNESLLGIVAPFWLKDNYVNTIGHRAAERALQLGTLFPPAEALKVGLVDEVVPEDQVHSKARSVMAKWFTIPDHSRQLTKSMMRKATADNLIKQREADIQNFTSFISRDSIQKSLHVYLEKLKQKKG | soluble
3 | FSSREQPQQNEGQIQKLNALKPDNRIESEGGLIETWNPNNKPFQCAGVALSRCTLNRNALRRPSYTNGPQEIYIQQGKGIFGMIYPGCPSTFEEPQQPQQRGQSSRPQDRHQKIYNFREGDLIAVPTGVAWWMYNNEDTPVVAVSIIDTNSLENQLDQMPRRFYLAGNQEQEFLKYQQEQGGHQSQKGKHQQEEENEGGSILSGFTLEFLEHAFSVDKQIAKNLQGENEGEDKGAIVTVKGGLSVIKPPTDEQQQRPQEEEEEEEDEKPQCKGKDKHCQRPRGSQSKSRRNGIDETICTMRLRHNIGQTSSPDIYNPQAGSVTTATSLDFPALSWLRLSAEFGSLRKNAMFVPHYNLNANSIIYALNGRALIQVVNCNGERVFDGELQEGRVLIVPQNFVVAARSQSDNFEYVSFKTNDTPMIGTLAGANSLLNALPEEVIQHTFNLKSQQARQIKNNNPFKFLVPPQESQKRAVA | soluble
4 | FVNKDQIAKDVKQFYDQALQQAVVDDDANNAKAVVKTFHETLDCCGSSTLTALTTSVLKNNLCPSGSNIISNLFKEDCHQKIDDLFSGKH | soluble
5 | GAEFKEKPEAPTEQLDVACGQENLPVGAWPPGAAPAPFQYTPDHVVGPGADIDPTQITFPGCICVKTPCLPGTCSCLRHGENYDDNSCLRDIGSGGKYAEPVFECNVLCRCSDHCRNRVVQKGLQFHFQVFKTHKKGWGLRTLEFIPKGRFVCEYAGEVLGFSEVQRRIHLQTKSDSNYIIAIREHVYNGQVMETFVDPTYIGNIGRFLNHSCEPNLLMIPVRIDSMVPKLALFAAKDIVPEEELSYDYSGRYLNLTVSASKERLDHGKLRKPCYCGAKSCTAFLPFDSS | soluble
6 | GAMAPSTIWHCFLKGTRLCFHKESNKEWQDVEDFARAASCDNEEEIQMGTHKGYGSDGLKLLSHEESVSFGESVLKLTFDPGTVEDGLLTVECKLDHPFYVKNKGWSSFYPSLTVVQHGIPCCEIHIGDVCLPPGHPDAINF | soluble
7 | GAMATSESPDAYTESFGAHTIVKPAGPPRVGQPSWNPQRASSMPVNRYRPFAEEVEPIRLRNRTWPDRVIDRAPLWCAVDLRDGNQALIDPMSPARKRRMFDLLVRMGYKEIEVGFPSASQTDFDFVREIIEQGAIPDDVTIQVLTQCRPELIERTFQACSGAPRAIVHFYNSTSILQRRVVFRANRAEVQAIATDGARKCVEQAAKYPGTQWRFEYSPESYTGTELEYAKQVCDAVGEVIAPTPERPIIFNLPATVEMTTPNVYADSIEWMSRNLANRESVILSLHPHNDRGTAVAAAELGFAAGADRIEGCLFGNGERTGNVCLVTLGLNLFSRGVDPQIDFSNIDEIRRTVEYCNQLPVHERHPYGGDLVYTAFSGSHQDAINKGLDAMKLDADAADCDVDDMLWQVPYLPIDPRDVGRTYEAVIRVNSQSGKGGVAYIMKTDHGLSLPRRLQIEFSQVIQKIAEGTAGEGGEVSPKEMWDAFAEEYLAPVRPLERIRQHVDAADDDGGTTSITATVKINGVETEISGSGNGPLAAFVHALADVGFDVAVLDYYEHAMSAGDDAQAAAYVEASVTIASPAQPGEAGRHASDPVTIASPAQPGEAGRHASDPVTSKTVWGVGIAPSITTASLRAVVSAVNRAAR | soluble
8 | GAMEPKASCPAAAPLMERKFHVLVGVTGSVAALKLPLLVSKLLDIPGLEVAVVTTERAKHFYSPQDIPVTLYSDADEWEMWKSRSDPVLHIDLRRWADLLLVAPLDANTLGKVASGICDNLLTCVMRAWDRSKPLLFCPAMNTAMWEHPITAQQVDQLKAFGYVEIPCVAKKLVCGDEGLGAMAEVGTIVDKVKEVLFQHSGFQQS | soluble
9 | GAMGQTTFTELMQQLFLKLGLNHQVNENDVYTFEVDGHIQVLIACYHQQWVQLFSELGADLPTNDNLFGEHWPAHVQGRLDGKSILWSQQSLVGLDIDEMQAWLERFIDDIEQRKEPQNTKFQPNSTSPILFI | soluble
10 | GAMGSMERASLIQKAKLAEQAERYEDMAAFMKGAVEKGEELSCEERNLLSVAYKNVVGGQRAAWRVLSSIEQKSNEEGSEEKGPEVREYREKVETELQGVCDTVLGLLDSHLIKEAGDAESRVFYLKMKGDYYRYLAEVATGDDKKRIIDSARSAYQEAMDISKKEMPPTNPIRLGLALNFSVFHYEIANSPEEAISLAKTTFDEAMADLHTLSEDSYKDSTLIMQLLRDNLTLWTADNAGEEGGEAPQEPQS | soluble
11 | GAMGSSRKSKAELQSEERKRIDELIESGKEEGMKIDLIDGKGRGVIATKQFSRGDFVVEYHGDLIEITDAKKREALYAQDPSTGCYMYYFQYLSKTYCVDATRETNRLGRLINHSKCGNCQTKLHDIDGVPHLILIASRDIAAGEELLYDYGDRSKASIEAHPWLKH | soluble
12 | GAMGSWNPKYDTRTLWTTPDTSPNCTIAQDKDSKLTLVLTKCGSQILANVSLIVVAGKYHIINNKTNPKIKSFTIKLLFNKNGVLLDNSNLGKAYWNFRSGNSNVSTAYEKAIGFMPNLVAYPKPSNSKKYARDIVYGTIYLGGKPDQPAVIKTTFNQETGCEYSITFNFSWSKTYENVEFETTSFTFSYIAQE | soluble
13 | GAPRSHEVPLLVTLEELYLGKRKKIKVTRKRFIEHKVRNEENIVEVEIKPGWKDGTKLTYSGEGDQESPGTSPGDLVLIIQTKTHPRFTRDDCHLIMKVTIPLVRALTGFTCPVTTLDNRNLQIPIKEIVNPKTRKIVPNEGMPIKNQPGQKGDLILEFDICFPKSLTPEQKKLIKEALD | soluble
14 | GAQLLGVHPKGESQRASRGGGQATKMSSAVGPRGPRPPTVPPPMQELPDLSHLTEEERNIIMAVMDRQKEEEEKEEAMLKCVVRDMAKPAACKTPRNAENQPHQPSPRLHQQFESYKEQVRKIGEEARRYQGEHKDDAPTCGICHKTKFADGCGHLCSYCRTKFCARCGGRVSLRSNNEDKVVMWVCNLCRKQQEILTKSGAWFFGSGPQQTSQDGTLSDTATGAGSEVPREKKARLQERSRSQTPLSTAAASSQDAAPPSAPPDRSKGAEPSQQALGPEQKQASSRSRSEPPRERKKTPGLSEQNGKGALKSERKRVPKTSAQPVEGAVEERERKERRESRRLEKGRSQDYPDTPEKRDEGKAADEEKQRKEEDYQTRYRSDPNLARYPVKPPPEEQQMRMHARVSRARHERRHSDVALPRTEAGAALPEGKAGKRAPAAARASPPDSPRAYSAERTAETRAPGAKQLTNHSPPAPRHGPVPAEAPELKAQEPLRKQSRLDPSSAVLMLRNDSLSSDQSESVRPSPPKPHRSKRGGKKRQMSVSSSEEEGVSTPEYTSCEDVELESESVSEKGDLDYYWLDPATWHSRETSPISSHPVTWQPSKEGDRLIGRVILNKRTTMPKDSGALLGLKVVGGKMTDLGRLGAFITKVKKGSLADVVGHLRAGDEVLEWNGKPLPGATNEEVYNIILESKSEPQVEIIVSRPIGDIPRIPESSHPPLESSSSSFESQKMERPSISVISPTSPGALKDAPQVLPGQLSVKLWYDKVGHQLIVNVLQATDLPARVDGRPRNPYVKMYFLPDRSDKSKRRTKTVKKILEPKWNQTFVYSHVHRRDFRERMLEITVWDQPRVQEEESEFLGEILIELETALLDDEPHWYKLQTHDESSLPLPQPSPFMPRRHIHGESSSKKLQRSQRISDSDISDYEVDDGIGVVPPVGYRSSARESKSTTLTVPEQQRTTHHRSRSVSPHRGNDQGKPRSRLPNVPLQRSLDEIHPTRRSRSPTRHHDASRSPVDHRTRDVDSQYLSEQDSELLMLPRAKRGRSAECLHTTR | soluble
15 | GAQVSSQKVGAHENSNRAYGGSTINYTTINYYKDSASNAASKQDYSQDPSKFTEPLKDVLIKTAPALN | soluble
16 | GARNSVLRGKKADELERIRLRPGGKKKYRLKHIVWAANKLDRFGLAESLLESKEGCQKILTVLDPMVPTGSENLKSLFNTVCVIWCIHAEEKVKDTEGAKQIVRRHLVAETGTAEKMPSTSRPTAPSSEKGGNY | soluble
17 | GASMDAIKKKMQMLKLDKENALDRAEQAEADKDFYFGKLRNIELICQENEGENDPVLQRIVDILYATDEGFVIPD | soluble
18 | GCGVEEKTEVQLLKEMPKPKAMTIDPSLSQKEATEMVHAAQRFYAFWDTGKEELIPQTVTENFFDHTLPKGRPQGTEGLKFAAQNFRKIVPNIHCEIEDLLVVGDKVTARLSFTGTHNDKKIDFFAIDILHVKDGKITEDWHLEDNLTLKQQLGLIAEE | soluble
19 | GERIDIRISPYLQDLFDAARADGVYPIVASGYRTTEKQQEIMDEKVAEYKAKGYTSAQAKAEAETWVAVPGTSEHQLGLAVDINADGIHSTGNEVYRWLDENSYRFGFIRRYPPDKTEITGVSNEPWHYRYVGIEAATKIYHQGLCLEEYLNTEK | not soluble
20 | GERLSEAEVLSLFDLPLPELAAAAHEVRLKKTDPEVVTFLIDRNINYTNVCTVACAFCAFYRTKRQKDAYTLSYEEIARKVEELYQVGGRRILMQGGVNPELPLVWYLDLLRYLKSRFPDLRIDAFSPEEILGLERLTGLRAEAILEKLKEAGLDGLPGAGAEILVDEVRLKAAPARIRTADWYRIVDAAQALGLYTLATMVIGFGEGPKERTAHLLGLRAQQDRALERYENGFAAFALWTLQVEHTRLKGKAPGATAHEYLKTLAVARLALDNFAHFQASWPTLGFKVAQAALYYGADDFGSTMLEENVVSAAGGHGRTHATVRQIVRHIVDAGFKPAER | not soluble
21 | GFVEPHVHPLIASIMLPNEIIAPYDWVLPHTVKKGVQDHDSYLKAVTKSVNENANKDEVYFIWGYHQLWHGELNRDILNNISKDKPIAIIHRSFHEIFLNDAAISKLGIKKSDFANNPQVYWEKGHFYEGGWFALVPMMASELLAPKKYLQGLAMMSELVEKNGITTIGEPGFPSSSFDTEYTLLKQEMDTKPPFDIFLIPNGTQLYGMKGSNENALTFMNSLPEKYNTSNIQFLPKQVKLFADGAIYSQLMQMKDGYIDGHKGEWITPLALFQQQLDFYWDRDFKIHTHANGDLGIQEVMGFVSKAQKRTPRKDHRFTLHHMGYFDDTQAQQVADLQIDASVNPYYLWALADKYAEHGLGKERGENLVRMKSLTDRGVHLSFHSDFSMAPMEPLTLAWTAVNRITSQGSKFSQAQRLDMYTAMKAITIGAARVLSQEHKIGSIKKGKTANFTILAENPFKVEPIALKDIDIITTVFRGTLSKPLH | not soluble
22 | GGGVMHYTDKAALPADGEAREVAALFDTWNAALATGNPHKVADLYAPDGVLLPTVSNEVRASREQIENYFEMFLTKKPKGVINYRTVRLLDDDSAVDAGVYTFTLTDKNGKKSDVQARYTFVYEKRDGKWLIINHHSSAMPEVDTATATAAVTKAK | soluble
23 | GGYSSEQQEDLEAIAPAVVQALQRKKAEEALRLSNIYNRSLIESSLDPLVTIGRDGKITDVNCATEQVTGYPRNDLIKTDFSDYFTEPENARAGYKQVFTDGEVRDYPLEIQHKDGHITPVLYNASVYRDEN | not soluble
